We go through 9 substances from patent publication US20220177587A1, “METHODS AND USES OF VARIANT CD80 FUSION PROTEINS AND RELATED CONSTRUCTS” (Alpine Immune Sciences, Inc., priority 2018, published 2022).

For test [1], the target named is PD-L1 (human) (UniProt Q9NZQ7). Kind of test: flow cytometry, HEK293 cells transfected with human PD-L1. In general terms: A flow cytometer gives signals particle by particle.
Target sequence in this assay (Q9NZQ7 19-290): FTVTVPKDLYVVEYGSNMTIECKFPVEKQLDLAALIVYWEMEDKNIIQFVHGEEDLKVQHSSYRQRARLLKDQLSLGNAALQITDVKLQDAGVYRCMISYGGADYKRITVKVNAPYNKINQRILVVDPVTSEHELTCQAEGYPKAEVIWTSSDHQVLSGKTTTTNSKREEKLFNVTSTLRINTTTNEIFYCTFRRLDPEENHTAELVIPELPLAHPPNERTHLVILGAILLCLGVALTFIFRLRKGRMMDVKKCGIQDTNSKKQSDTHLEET
The target in test [2] is PD-L1 (human) (UniProt Q9NZQ7). Kind of test: flow cytometry, transfected Expi293F cells.
Target sequence in this assay (Q9NZQ7 19-290): as above
Test [3] addresses human CTLA-4 (human) (UniProt P16410). The test can be described thus: flow cytometry, transfected Expi293F cells.
Target sequence in this assay (P16410 36-223): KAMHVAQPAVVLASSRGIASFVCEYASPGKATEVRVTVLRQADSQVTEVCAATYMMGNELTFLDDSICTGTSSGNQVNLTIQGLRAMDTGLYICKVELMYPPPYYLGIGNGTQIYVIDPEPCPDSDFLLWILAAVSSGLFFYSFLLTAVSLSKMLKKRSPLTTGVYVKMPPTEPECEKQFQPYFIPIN
Test [4] has as its target CD28 (human) (UniProt P10747).
The target in test [5] is CD28 (human) (UniProt P10747). Kind of test: flow cytometry, Jurkat cells (CD28).
The target in test [6] is human CTLA-4 (human) (UniProt P16410). Kind of test: flow cytometry, CHO cells stably expressing CTLA4.
The target in test [7] is PD-L1 (human) (UniProt Q9NZQ7). The test can be described thus: flow cytometry, CHO cells stably expressing PD-L1.
Test [8] concerns the target CD28 (human) (UniProt P10747). The source holds these as a separate data set.
Test [9] addresses PD-L1 (human) (UniProt Q9NZQ7).
Target sequence in this assay (Q9NZQ7 19-290): as the sequence (Q9NZQ7 19-290) above
In test [10] the target is PD-L1 (human) (UniProt Q9NZQ7). The test can be described thus: flow cytometry, CHO cells expressing huPD-L1.
Target sequence in this assay (Q9NZQ7 19-290): as above
Test [11] has as its target human CTLA-4 (human) (UniProt P16410). Kind of test: flow cytometry, CHO cells expressing huCTLA-4.
Target sequence in this assay (P16410 36-223): as the sequence (P16410 36-223) above
For test [12], the target named is CD28 (human) (UniProt P10747). Kind of test: flow cytometry, Jurkat/IL2 reporter cells (CD28).
Test [13] concerns the target PD-L1 (human) (UniProt Q9NZQ7). Kind of test: flow cytometry, CHO/huPD-L1 cells; vs WT CD80 ECD-Fc (Abcam).
Target sequence in this assay (Q9NZQ7 19-290): as the sequence (Q9NZQ7 19-290) above
Test [14] addresses human CTLA-4 (human) (UniProt P16410). Kind of test: flow cytometry, CHO/huCTLA-4 cells; vs WT CD80 ECD-Fc (Abcam).
Target sequence in this assay (P16410 36-223): as the sequence (P16410 36-223) above
Test [15] concerns the target human PD-L1 (huPD-L1), on stably transduced CHO cells (human) (UniProt Q9NZQ7). The test can be described thus: flow cytometry; ratio of MFI on CHO/huPD-L1 cells to MFI on Jurkat (CD28) cells.
In test [16] the target is human CTLA-4 (huCTLA4), on stably transduced CHO cells (human) (UniProt P16410). The test can be described thus: flow cytometry on CHO/huCTLA4 cells; MFI relative to WT CD80 (CD80 WT IgV-Fc = 1.0).
Sequence of human CTLA-4 (huCTLA4), on stably transduced CHO cells (human) (P16410 36-223): as above
In test [17] the target is human PD-L1 (huPD-L1), on stably transduced CHO cells (human) (UniProt Q9NZQ7). Kind of test: flow cytometry on CHO/huPD-L1 cells; MFI relative to WT CD80 (CD80 WT IgV-Fc = 1.0).
Sequence of human PD-L1 (huPD-L1), on stably transduced CHO cells (human) (Q9NZQ7 19-290): as the sequence (Q9NZQ7 19-290) above
Test [18] concerns the target CD28, endogenously expressed on Jurkat/IL2 reporter cells (human) (UniProt P10747). Kind of test: flow cytometry on Jurkat (CD28) cells; MFI relative to WT CD80 (CD80 WT IgV-Fc = 1.0).
The target of test [19] is human CTLA-4 (huCTLA4), on stably transduced CHO cells (human) (UniProt P16410). Kind of test: flow cytometry on CHO cells stably expressing huCTLA4, 33.3 nM Fc fusion, PE anti-human Fc.
Test [20] has as its target human PD-L1 (huPD-L1), on stably transduced CHO cells (human) (UniProt Q9NZQ7). Kind of test: flow cytometry on CHO cells stably expressing huPD-L1, 33.3 nM Fc fusion, PE anti-human Fc.
In test [21] the target is CD28, endogenously expressed on Jurkat/IL2 reporter cells (human) (UniProt P10747). The test can be described thus: flow cytometry on Jurkat/IL2 reporter cells (endogenous CD28), 33.3 nM Fc fusion, PE anti-human Fc.
Test [22] deals with CD28 (human) (UniProt P10747). Kind of test: flow cytometry, Jurkat cells (CD28). The source holds these as a separate data set.
Test [23] deals with PD-L1 (human) (UniProt Q9NZQ7). The test can be described thus: flow cytometry, CHO cells expressing PD-L1.
In test [24] the target is PD-L1 (human) (UniProt Q9NZQ7). Kind of test: flow cytometry, CHO cells stably expressing PD-L1. The source holds these as a separate data set.
The target of test [25] is CD28 (human) (UniProt P10747). Kind of test: flow cytometry, HEK293 cells transfected with human CD28.
Test [26] deals with CD28 (human) (UniProt P10747). Kind of test: flow cytometry, HEK293 cells transfected with human CD28; negative control.
In test [27] the target is PD-L1 (human) (UniProt Q9NZQ7). The test can be described thus: flow cytometry, HEK293 cells transfected with human PD-L1; negative control.
Target sequence in this assay (Q9NZQ7 19-290): as above
Test [28] concerns the target human CTLA-4 (human) (UniProt P16410). The test can be described thus: flow cytometry, HEK293 cells transfected with human CTLA-4; negative control.
Target sequence in this assay (P16410 36-223): as the sequence (P16410 36-223) above

On to “variant CD80 IgV-Fc S44P/A71D (Fc fusion)”, for which, in the test with PD-L1 (human) [1], the MFI at 22.2 nM came out at 6310.

Regarding “CD80 R29D/Y31L/Q33H/K36G/M38I/T41A/M43R/M47T/L85R/K89N/A91T/F92P/K93V/R94L/I118V/T120S/I127T/T130A/K169E/H188D ECD-Fc (Fc fusion)”, the MFI with PD-L1 (human) [2] is 110000; in the test with human CTLA-4 (human) [3], 2200.

On to Human IgG1 Isotype Control (antibody), for which the Relative Luminescence (RLU), Jurkat/IL2 reporter assay, at 100000 pM with CD28 (human) [4] turned out to be 965 RLU. Also, the MFI at 66.7 nM with CD28 (human) [5] was determined as 73.2; with human CTLA-4 (human) [6], 69.4; with PD-L1 (human) [7], 96.4.

Take “CD80 E35D/D46V/M47L/V68M/L85Q/E88D IgV-Fc, delta linker (Fc fusion)”: the IL2-luciferase reporter, fold increase in RLU over WT CD80-IgV-Fc at 5.0 nM in the test with CD28 (human) [8] and with PD-L1 (human) [9] was 2.77 fold throughout.

As to “variant CD80 IgV-Fc D46V/M47L/L85Q (Fc fusion)”, the figures for the MFI at 33.3 nM with PD-L1 (human) [10], with human CTLA-4 (human) [11] and in the test with CD28 (human) [12] were 5980 MFI, 40200 MFI and 567 MFI, respectively. Further, the Fold change to WT CD80 in the test with PD-L1 (human) [13] was determined as 46.7 fold; with human CTLA-4 (human) [14], 1 fold.

“variant CD80 IgV-Fc E35D/T41S/N48T (Fc fusion)”: the Ratio of PDL1:CD28 in test [15] was 30. Further, the Fold change to WT CD80 turned out to be 15.8 fold in [16], 31.2 fold in test [17] and 1.1 fold in test [18]. The MFI at 33.3 nM was found to be 30300 MFI in [19], 2190 MFI in [20] and 72.4 MFI in test [21].

For the substance WT CD80 ECD-Fc (Fc fusion), the MFI at 33.3 nM with CD28 (human) [5] was 31 MFI; in the test with CD28 (human) [5] (record 2) it was 30 MFI; with CD28 (human) [22] it was 46 MFI; in the test with PD-L1 (human) [23] it was 52 MFI; with PD-L1 (human) [24] it was 58 MFI. This substance showed an MFI at 66.6 nM with CD28 (human) [25] of 24800.

With Fc only, the MFI at 66.6 nM is 2590 with CD28 (human) [26] and 5960 in the test with human CTLA-4 (human) [28]. In addition, the MFI at 22.2 nM with PD-L1 (human) [27] is 4740.

Consider “variant CD80 IgV-Fc E35D/M47V/N48K/K89N (Fc fusion)”, for which the MFI at 33.3 nM was 6670 MFI with PD-L1 (human) [10], 43800 MFI with human CTLA-4 (human) [11] and 701 MFI in the test with CD28 (human) [12]. The Fold change to WT CD80 stood at 52.1 fold in the test with PD-L1 (human) [13] and 1.1 fold with human CTLA-4 (human) [14].
